The text below walks through data of PMC5789952 (Proceedings of the National Academy of Sciences of the …, 2017).

Data set [1] concerns the target T1, STAT2_(133–679) (mouse, UniProt Q9WVL2 133-679).
T1 sequence (looked up): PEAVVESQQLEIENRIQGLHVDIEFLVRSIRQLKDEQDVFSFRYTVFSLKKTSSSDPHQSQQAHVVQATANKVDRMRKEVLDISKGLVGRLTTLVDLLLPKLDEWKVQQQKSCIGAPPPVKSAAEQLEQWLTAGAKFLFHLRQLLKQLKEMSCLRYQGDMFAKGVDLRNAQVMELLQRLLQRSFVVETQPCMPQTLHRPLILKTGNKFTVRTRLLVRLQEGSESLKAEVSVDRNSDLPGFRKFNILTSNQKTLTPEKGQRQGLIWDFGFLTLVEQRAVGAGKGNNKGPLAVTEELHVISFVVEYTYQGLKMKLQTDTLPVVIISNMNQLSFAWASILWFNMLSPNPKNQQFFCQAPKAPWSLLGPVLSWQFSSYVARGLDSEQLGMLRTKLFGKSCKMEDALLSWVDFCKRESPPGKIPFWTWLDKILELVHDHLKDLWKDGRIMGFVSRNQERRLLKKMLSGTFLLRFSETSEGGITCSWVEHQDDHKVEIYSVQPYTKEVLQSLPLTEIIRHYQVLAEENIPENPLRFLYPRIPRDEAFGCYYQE
The data set is described as follows: SEC-MALS. On the technique in general: Size exclusion chromatography separates by hydrodynamic size, large species first.

In data set [2] the target is T2, STAT2 (133–748) of the purified STAT1–STAT2 heterodimer (mouse, UniProt Q9WVL2 133-748).
T2 sequence (looked up): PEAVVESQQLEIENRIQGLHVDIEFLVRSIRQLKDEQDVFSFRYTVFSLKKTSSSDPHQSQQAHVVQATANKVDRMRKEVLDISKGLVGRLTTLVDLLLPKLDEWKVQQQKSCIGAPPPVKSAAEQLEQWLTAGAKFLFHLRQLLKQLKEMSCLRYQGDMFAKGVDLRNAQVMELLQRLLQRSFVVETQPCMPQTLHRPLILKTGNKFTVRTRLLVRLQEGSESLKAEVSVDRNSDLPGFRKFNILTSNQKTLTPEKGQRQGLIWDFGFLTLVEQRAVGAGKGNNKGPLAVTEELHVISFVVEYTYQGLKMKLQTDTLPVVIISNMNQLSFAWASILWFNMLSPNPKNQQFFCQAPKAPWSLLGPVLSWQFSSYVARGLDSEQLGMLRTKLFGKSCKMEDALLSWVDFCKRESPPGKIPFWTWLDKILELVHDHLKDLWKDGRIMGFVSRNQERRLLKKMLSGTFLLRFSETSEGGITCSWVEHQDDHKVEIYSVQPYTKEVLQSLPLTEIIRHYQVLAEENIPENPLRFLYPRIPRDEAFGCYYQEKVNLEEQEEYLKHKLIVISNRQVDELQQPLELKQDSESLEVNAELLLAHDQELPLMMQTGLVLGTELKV
The data set is described as follows: tandem affinity co-purification.

The target of data set [3] is T3, IRF9–IAD_(182–385) (mouse, UniProt Q61179 182-385).
T3 sequence (looked up): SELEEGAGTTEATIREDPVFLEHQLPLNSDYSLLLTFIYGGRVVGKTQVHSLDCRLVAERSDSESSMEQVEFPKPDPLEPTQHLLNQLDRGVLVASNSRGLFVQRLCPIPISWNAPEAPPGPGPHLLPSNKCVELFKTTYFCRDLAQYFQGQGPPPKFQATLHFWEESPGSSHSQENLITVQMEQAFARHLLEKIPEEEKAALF
Description: SEC.

In data set [4] the target is T4, IRF9-DBD (Mus musculus, UniProt Q61179 1-116).
T4 sequence: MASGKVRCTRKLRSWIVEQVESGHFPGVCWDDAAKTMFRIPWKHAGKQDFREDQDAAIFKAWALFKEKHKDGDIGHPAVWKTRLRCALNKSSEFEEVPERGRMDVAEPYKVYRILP
The data set is described as follows: EMSA.

B1: IRF9_(182–399) (domain or fragment, mouse, UniProt Q61179 182-399, looked up)
chain: SELEEGAGTTEATIREDPVFLEHQLPLNSDYSLLLTFIYGGRVVGKTQVHSLDCRLVAERSDSESSMEQVEFPKPDPLEPTQHLLNQLDRGVLVASNSRGLFVQRLCPIPISWNAPEAPPGPGPHLLPSNKCVELFKTTYFCRDLAQYFQGQGPPPKFQATLHFWEESPGSSHSQENLITVQMEQAFARHLLEKIPEEEKAALFLLQHTEQSPSALGH
Usually stoichiometry N stands for the number of molecules, sites or subunits per partner or assembly. With B1, the “stoichiometry N” value in data set [1] amounted to 1.

B2: STAT1 (136–713) of the purified STAT1–STAT2 heterodimer (domain or fragment, mouse, UniProt P42225 136-713, looked up)
chain: LDKQKELDSKVRNVKDQVMCIEQEIKTLEELQDEYDFKCKTSQNREGEANGVAKSDQKQEQLLLHKMFLMLDNKRKEIIHKIRELLNSIELTQNTLINDELVEWKRRQQSACIGGPPNACLDQLQTWFTIVAETLQQIRQQLKKLEELEQKFTYEPDPITKNKQVLSDRTFLLFQQLIQSSFVVERQPCMPTHPQRPLVLKTGVQFTVKSRLLVKLQESNLLTKVKCHFDKDVNEKNTVKGFRKFNILGTHTKVMNMEESTNGSLAAELRHLQLKEQKNAGNRTNEGPLIVTEELHSLSFETQLCQPGLVIDLETTSLPVVVISNVSQLPSGWASILWYNMLVTEPRNLSFFLNPPCAWWSQLSEVLSWQFSSVTKRGLNADQLSMLGEKLLGPNAGPDGLIPWTRFCKENINDKNFSFWPWIDTILELIKNDLLCLWNDGCIMGFISKERERALLKDQQPGTFLLRFSESSREGAITFTWVERSQNGGEPDFHAVEPYTKKELSAVTFPDIIRNYKVMAAENIPENPLKYLYPNIDKDHAFGKYYSRPKEAPEPMELDDPKRTGYIKTELISVSEVH
For the molecule B2, in data set [2], the binding result is recorded as “binds”.

B3: STAT2_(133–315) (domain or fragment, mouse, UniProt Q9WVL2 133-315, looked up)
chain: PEAVVESQQLEIENRIQGLHVDIEFLVRSIRQLKDEQDVFSFRYTVFSLKKTSSSDPHQSQQAHVVQATANKVDRMRKEVLDISKGLVGRLTTLVDLLLPKLDEWKVQQQKSCIGAPPPVKSAAEQLEQWLTAGAKFLFHLRQLLKQLKEMSCLRYQGDMFAKGVDLRNAQVMELLQRLLQRS
Turning to B3, the binding result in data set [3] is “binds”.

B4: ADAR ISRE 29 bp (dsDNA)
DNA 1: TAAGCCTTTTCAAGGAAACGAAAGTGAAC
DNA 2: AGTTCACTTTCGTTTCCTTGAAAAGGCTT
Consider B4, for which the binding result in data set [4] was “binds”.
